Columns and labels:
TLR2:Fc fusion protein = molecular target: T1, TLR2:Fc fusion protein (Homo sapiens, UniProt O60603); experiment: SAA-TLR2 interaction, ELISA-like binding assay; conditions: 0.0625 to 8 μg/ml ligand coated, 2 μg/ml TLR2:Fc
T1 construct: measured in an ELISA-like assay using a TLR2 extracellular domain:Fc fragment fusion protein; made in house; host or cells: CHO cells (pFuse-Fc vector, InvivoGen), purified from culture supernatant on protein A
Excerpt: Another example of a method for screening antagonists that disrupt the SAA/TLR2 interaction involves a binding assay that includes a TLR2 ectodomain (extracellular domain) fused to an Fc fragment of immunoglobulin (TLR2:Fc), such as the assay used in FIG. 9B. This assay is typically used as a follow-up or secondary assay to that assay described above. In other words, any compounds collected from the assay described above are subjected to the TLR2:Fc-based binding assay to confirm that the antagonistic effect is on the disruption of SAA-TLR2 binding. This method is generally carried out as follows and is also described in the Examples. A TLR2:Fc fusion protein is generated such that the N-terminal 588 amino acids of human TLR2 are fused in frame to the Fc portion of mouse IgG2a. The cDNA encoding for the resulting chimeric protein is cloned in pFuse-Fc vector (InvivoGen), and stably transfected into CHO cells. […] Absorbance at 450 nm is measured on a SpectraMax 340 plate reader (Molecular Devices).
Assays for SAA-TLR2 interaction: The TL2:Fc fusion protein was generated such that the N-terminal 588 amino acids of human TLR2 protein were fused in frame with the Fc portion of mouse IgG2a. […] Absorbance at 450 nm was measured on a SpectraMax 340 plate reader (Molecular Devices). […]

TLR2 [1] = molecular target: T2, TLR2 (Homo sapiens, UniProt O60603); experiment: NF-κB luciferase reporter assay in TLR2-HeLa cells; assay type: cell-based
T2 construct: host or cells: HeLa
Procedure: (§1) To determine whether TLR2 is a receptor for SAA, a TLR2-expressing cell line was prepared in HeLa cells, which contain very little endogenous TLR2 transcript (FIG. 6A, upper panel). […] TLR2 is a class I transmembrane protein that contains an extracellular ligand binding domain (ectodomain), a transmembrane domain and a cytoplasmic domain consisting of the Toll/IL-1/receptor/Resistance (TIR) motif. Studies have shown that TLR2 forms heterodimers with TLR1 and TLR6 (Ozinsky et al., 2000), which display different preference for TLR2 ligands (Hoebe et al., 2005; Takeuchi et al., 2002). The C-terminal TIR domain is conserved among TLRs and responsible for TLR signaling (O'Neill and Bowie, 2007; Takeda and Akira, 2004). To assess the relative contributions of TLRs to SAA signaling, TLR1, TLR2, TLR4 and TLR6 were overexpressed in the TLR2-HeLa cells, and their effects on SAA-induced NF-κB luciferase reporter activity were determined. […] In addition, the TIR domain deletion mutants (ΔTIR) of these receptors were expressed, which are negative regulators of TLR signaling.
(§2) Methods for the generation of TLR2-HeLa stable cell line: HeLa cells stably transfected with human TLR2 gene were generated by transfecting HeLa cells with the expression construct pUNO-hTLR2 (InvivoGen, San Diego, Calif.; GenBank accession number for human TLR2 cDNA is NM_003264) and selected with Blasticidin at concentration of 20 μg/ml for 2 weeks. The control HeLa cells were generated at the same time by transfecting with empty pUNO vector. Cells were maintained in DMEM supplemented with 10% heat-inactivated FB S, 2 mM L-glutamine, 100 IU/ml penicillin, and 50 μg/ml streptomycin. Expression of TLR2 was confirmed using an anti-TLR2 antibody (eBioscience) and FTTC-conjugated anti-mouse antibody, on a FACSCalibur flow cytometer (Becton Dickinson). The TLR2-HeLa and control cells were then co-transfected with 5xNF-κB reporter plasmids (pNF-κB-Luc, Stratagene, Cedar Creek, Tex., catalog no. 219077) and empty SFFV vector bearing a neomycin resistant gene. The TLR2-HeLa/NF-κB reporting cells were obtained after selecting with G418 at concentration of […] for 2-3 weeks. Cells (5′10^5/ml) were grown in DMEM supplemented with 10% heat-inactivated FBS, 2 mM L-glutamine, 100 IU/ml penicillin, and […] streptomycin.
(§3) Methods for using HeLa cells in reporter assay: Mock-transfected HeLa and TLR2-HeLa cells were maintained at ˜5×10^5 cells/well in six-well plates, transfected with plasmid expression vectors coding for a 3×κB-directed luciferase reporter, pCMVβ vector DNA (Promega) and/or other expression constructs as indicated. Total DNA concentration was adjusted to 1 μg/sample by addition of empty vector DNA. Transient transfection was performed using LipofectAmine Plus reagent (Invitrogen). […]

TLR2 [2] = experiment: NF-κB luciferase reporter assay in TLR2-HeLa cells; assay type: cell-based, human; conditions: TLR2-HeLa cells, p<0.01
Procedure: as §1, §2, §3

T2 sequence (O60603 21-784): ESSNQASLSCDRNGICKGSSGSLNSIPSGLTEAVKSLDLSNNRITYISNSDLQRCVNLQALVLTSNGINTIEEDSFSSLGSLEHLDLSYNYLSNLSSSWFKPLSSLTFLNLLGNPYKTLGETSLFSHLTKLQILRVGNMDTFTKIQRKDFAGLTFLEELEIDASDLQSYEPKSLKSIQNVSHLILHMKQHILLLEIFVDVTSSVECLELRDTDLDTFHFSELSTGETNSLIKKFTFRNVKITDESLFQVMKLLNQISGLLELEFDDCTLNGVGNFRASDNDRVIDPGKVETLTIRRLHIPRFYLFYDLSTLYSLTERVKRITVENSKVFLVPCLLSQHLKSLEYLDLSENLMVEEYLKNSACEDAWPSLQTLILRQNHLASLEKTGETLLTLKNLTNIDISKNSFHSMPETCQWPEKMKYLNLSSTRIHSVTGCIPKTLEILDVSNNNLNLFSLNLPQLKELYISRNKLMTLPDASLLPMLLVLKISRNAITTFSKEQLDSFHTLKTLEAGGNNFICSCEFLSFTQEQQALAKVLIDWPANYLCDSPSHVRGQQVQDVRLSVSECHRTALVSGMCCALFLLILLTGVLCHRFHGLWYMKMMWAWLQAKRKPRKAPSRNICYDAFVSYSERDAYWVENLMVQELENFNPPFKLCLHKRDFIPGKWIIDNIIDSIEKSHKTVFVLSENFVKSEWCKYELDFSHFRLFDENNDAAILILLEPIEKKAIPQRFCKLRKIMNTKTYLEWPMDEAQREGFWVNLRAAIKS
T2 sequence (Q15399 25-786 partner): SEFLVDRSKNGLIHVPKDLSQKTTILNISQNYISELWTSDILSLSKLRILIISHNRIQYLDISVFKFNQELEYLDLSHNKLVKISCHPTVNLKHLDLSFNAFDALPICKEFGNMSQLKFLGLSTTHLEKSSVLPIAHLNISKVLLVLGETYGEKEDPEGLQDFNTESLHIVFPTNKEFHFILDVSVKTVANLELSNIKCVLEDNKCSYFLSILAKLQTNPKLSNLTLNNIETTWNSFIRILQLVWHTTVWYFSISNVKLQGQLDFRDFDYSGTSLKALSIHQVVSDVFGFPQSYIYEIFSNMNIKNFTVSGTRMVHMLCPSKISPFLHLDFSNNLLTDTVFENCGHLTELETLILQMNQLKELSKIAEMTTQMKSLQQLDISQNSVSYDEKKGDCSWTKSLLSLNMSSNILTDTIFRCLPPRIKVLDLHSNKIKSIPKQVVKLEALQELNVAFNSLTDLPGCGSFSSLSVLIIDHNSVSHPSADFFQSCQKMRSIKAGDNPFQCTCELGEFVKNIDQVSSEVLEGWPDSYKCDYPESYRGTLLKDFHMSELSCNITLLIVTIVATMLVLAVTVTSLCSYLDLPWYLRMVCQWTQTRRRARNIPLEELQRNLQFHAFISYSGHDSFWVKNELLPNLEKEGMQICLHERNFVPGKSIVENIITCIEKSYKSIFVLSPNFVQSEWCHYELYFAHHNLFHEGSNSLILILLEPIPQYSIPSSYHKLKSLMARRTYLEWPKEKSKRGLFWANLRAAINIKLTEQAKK
T1 sequence (O60603 21-588 limits assumed): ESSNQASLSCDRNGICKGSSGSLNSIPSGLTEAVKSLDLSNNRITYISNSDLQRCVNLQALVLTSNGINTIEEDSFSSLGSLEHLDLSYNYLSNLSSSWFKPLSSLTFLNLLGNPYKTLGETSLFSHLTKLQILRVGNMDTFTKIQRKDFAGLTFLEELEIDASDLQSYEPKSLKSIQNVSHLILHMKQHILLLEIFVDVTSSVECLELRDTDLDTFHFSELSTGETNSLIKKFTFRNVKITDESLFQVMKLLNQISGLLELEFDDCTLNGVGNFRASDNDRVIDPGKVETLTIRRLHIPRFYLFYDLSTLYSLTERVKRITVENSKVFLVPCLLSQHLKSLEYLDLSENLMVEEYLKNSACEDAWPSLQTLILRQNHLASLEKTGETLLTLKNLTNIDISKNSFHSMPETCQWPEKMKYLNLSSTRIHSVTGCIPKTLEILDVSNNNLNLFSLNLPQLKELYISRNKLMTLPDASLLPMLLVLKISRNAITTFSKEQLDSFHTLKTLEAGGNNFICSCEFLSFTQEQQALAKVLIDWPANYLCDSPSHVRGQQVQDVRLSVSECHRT

B1: SAA: Recombinant human SAA purchased from PeproTech; major acute-phase protein of 104 amino acids (protein, UniProt P0DJI8 19-122, looked up)
Serum amyloid A-1 protein: RSFFSFLGEAFDGARDMWRAYSDMREANYIGSDKYFHARGNYDAAKRGPGGAWAAEVITDARENIQRFFGHGAEDSLADQAANEWGRSGKDPNHFRPAGLPEKY
- binding to TLR2:Fc fusion protein (TLR2:Fc fusion protein): dose-dependent increase in SAA binding
- NF-κB luciferase activity (TLR2 [1]; SAA-stimulated TLR2-HeLa vs mock-transfected HeLa cells, p<0.01): significantly increased NF-κB luciferase activity
- SAA-induced NF-κB luciferase activity with exogenous expression of TLR1 (TLR2 [1]; TLR2-HeLa cells overexpressing TLR1): potentiated SAA-induced NF-κB luciferase activity
- SAA-induced NF-κB luciferase activity with ΔTIR mutants of TLR1, TLR2 and TLR6 (TLR2 [2]): significant inhibition
